Reference: PMC5370111, “Biophysical characterization of the b-HLH-LZ of ΔMax, an alternatively spliced isoform of Max found in tumor cells: Towards the validation of a tumor suppressor role for the Max homodimers”

How the values were obtained:
[1] = system: Max* in heterodimer;ΔMax* in heterodimer V99G;R100E;A101S;L102E;E103S (;), P61244+P61244-3; assay: fluorescence anisotropy; details: 37 C, 1:1 mixture, apparent 1/KBinding, internal fluorescein-dT (iFluorT) at position 4, FA: 15 nM dsDNA, 50 mM Tris, 50 mM KCl, pH 7.5, 37 C, EMSA: 250 nM DNA, 20 mM Tris-HCl, 75 mM KCl, 2.5 mM TCEP, 25 ug/mL BSA, 5% glycerol, pH 8.0, room temp …
Max* in heterodimer;ΔMax* in heterodimer V99G;R100E;A101S;L102E;E103S (;), P61244+P61244-3, sequence (P61244 whole entry V99G/R100E/A101S/L102E/E103S, looked up, canonical isoform, one chain of several): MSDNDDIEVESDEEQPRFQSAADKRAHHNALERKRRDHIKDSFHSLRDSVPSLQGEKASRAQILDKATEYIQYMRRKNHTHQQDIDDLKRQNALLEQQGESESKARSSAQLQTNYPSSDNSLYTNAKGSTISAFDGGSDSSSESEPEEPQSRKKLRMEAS

[2] = system: ΔMax* (b-HLH-LZ of ΔMax splice isoform) V99G;R100E;A101S;L102E;E103S, P61244-3; assay: fluorescence anisotropy; details: 37 C; apparent 1/KBinding of dimer; 1/KDimer 220 ± 20 nM; internal fluorescein-dT (iFluorT) at position 4; FA: 15 nM dsDNA, 50 mM Tris, 50 mM KCl, pH 7.5, 37 C; EMSA: 250 nM DNA, 20 mM Tris-HCl, 75 mM KCl, 2.5 mM TCEP, 25 ug/mL BSA, 5% glycerol, pH 8.0, room temp …
ΔMax* (b-HLH-LZ of ΔMax splice isoform) V99G;R100E;A101S;L102E;E103S, P61244-3, sequence (P61244 whole entry V99G/R100E/A101S/L102E/E103S, looked up, canonical isoform): as the sequence (P61244 whole entry V99G/R100E/A101S/L102E/E103S, looked up, canonical isoform, one chain of several) above

[3] = system: ΔMax* in heterodimer;c-Myc* in heterodimer V99G;R100E;A101S;L102E;E103S (;), P61244-3+P01106; assay: fluorescence anisotropy; details: 37 C, 1:1 mixture, apparent 1/KBinding, internal fluorescein-dT (iFluorT) at position 4, FA: 15 nM dsDNA, 50 mM Tris, 50 mM KCl, pH 7.5, 37 C, EMSA: 250 nM DNA, 20 mM Tris-HCl, 75 mM KCl, 2.5 mM TCEP, 25 ug/mL BSA, 5% glycerol, pH 8.0, room temp …
ΔMax* in heterodimer;c-Myc* in heterodimer V99G;R100E;A101S;L102E;E103S (;), P61244-3+P01106, sequence (P01106 whole entry, looked up, chain 1 of 2): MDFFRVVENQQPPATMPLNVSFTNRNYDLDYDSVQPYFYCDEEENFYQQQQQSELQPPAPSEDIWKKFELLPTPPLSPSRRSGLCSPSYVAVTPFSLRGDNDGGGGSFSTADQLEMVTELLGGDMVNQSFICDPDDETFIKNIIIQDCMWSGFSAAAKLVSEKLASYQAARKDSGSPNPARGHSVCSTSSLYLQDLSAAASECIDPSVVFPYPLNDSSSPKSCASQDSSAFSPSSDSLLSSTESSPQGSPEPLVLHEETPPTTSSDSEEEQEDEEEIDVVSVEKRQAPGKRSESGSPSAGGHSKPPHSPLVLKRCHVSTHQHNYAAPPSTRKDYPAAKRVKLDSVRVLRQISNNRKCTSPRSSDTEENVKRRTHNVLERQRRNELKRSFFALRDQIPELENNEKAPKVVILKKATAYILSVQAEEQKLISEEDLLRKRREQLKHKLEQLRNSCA
ΔMax* in heterodimer;c-Myc* in heterodimer V99G;R100E;A101S;L102E;E103S (;), P61244-3+P01106, sequence (P61244 whole entry, looked up, stated change not applied, chain 2 of 2): as the sequence (P61244 whole entry V99G/R100E/A101S/L102E/E103S, looked up, canonical isoform, one chain of several) above, with G99V, E100R, S101A, E102L, S103E counted along it

[4] = molecular target: Max* in heterodimer;c-Myc* in heterodimer (;, UniProt P61244;P01106 22-103;368-451, |); assay: EMSA; room temperature; Max*/Max* complex also seen at 2:1 excess of c-Myc*; FA: 15 nM dsDNA, 50 mM Tris, 50 mM KCl, pH 7.5, 37 C; EMSA: 250 nM DNA, 20 mM Tris-HCl, 75 mM KCl, 2.5 mM TCEP, 25 ug/mL BSA, 5% glycerol, pH 8.0, room temp; CD: 25 mM KH2PO4, 25 mM Na2HPO4, 50 mM KCl, 1 mM TCEP, pH 6.8; details: protein: recombinant;recombinant; tags: ;; copies: 1;1; label: fluorescein; blunt, self-complementary palindrome
Max* in heterodimer;c-Myc* in heterodimer, sequence (P61244 22-103, chain 1 of 2): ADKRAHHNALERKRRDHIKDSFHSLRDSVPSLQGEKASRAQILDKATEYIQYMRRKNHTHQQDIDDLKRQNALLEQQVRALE
Max* in heterodimer;c-Myc* in heterodimer, sequence (P01106 368-451, chain 2 of 2): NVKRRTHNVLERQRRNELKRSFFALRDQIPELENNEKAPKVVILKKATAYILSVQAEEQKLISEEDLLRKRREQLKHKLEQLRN

[5] = molecular target: T1, c-Myc* (b-HLH-LZ of c-Myc) (UniProt P01106 368-451); assay: fluorescence anisotropy; 37 C; apparent 1/KBinding of dimer; 1/KDimer 0.48 ± 0.5 nM; FA: 15 nM dsDNA, 50 mM Tris, 50 mM KCl, pH 7.5, 37 C; EMSA: 250 nM DNA, 20 mM Tris-HCl, 75 mM KCl, 2.5 mM TCEP, 25 ug/mL BSA, 5% glycerol, pH 8.0, room temp; CD: 25 mM KH2PO4, 25 mM Na2HPO4, 50 mM KCl, 1 mM TCEP, pH 6.8; details: protein: recombinant; chain copies: 2; label: fluorescein; blunt, self-complementary palindrome
T1 sequence (P01106 368-451): as the sequence (P01106 368-451, chain 2 of 2) above

[6] = molecular target: T2, Max* (b-HLH-LZ of WT Max) (UniProt P61244 22-103); assay: fluorescence anisotropy; 37 C; apparent 1/KBinding of dimer; 1/KDimer 8.6 ± 1.2 nM; FA: 15 nM dsDNA, 50 mM Tris, 50 mM KCl, pH 7.5, 37 C; EMSA: 250 nM DNA, 20 mM Tris-HCl, 75 mM KCl, 2.5 mM TCEP, 25 ug/mL BSA, 5% glycerol, pH 8.0, room temp; CD: 25 mM KH2PO4, 25 mM Na2HPO4, 50 mM KCl, 1 mM TCEP, pH 6.8; details: protein: recombinant; tags: C-terminal GSGC stated for the deltaMax* construct only; not restated for Max*; chain copies: 2; label: fluorescein; blunt, self-complementary palindrome
T2 sequence (P61244 22-103): as the sequence (P61244 22-103, chain 1 of 2) above

[7] = molecular target: T1, c-Myc* (b-HLH-LZ of c-Myc); assay: fluorescence anisotropy; 37 C; apparent 1/KBinding of dimer; 1/KDimer 8.5 ± 3 nM; FA: 15 nM dsDNA, 50 mM Tris, 50 mM KCl, pH 7.5, 37 C; EMSA: 250 nM DNA, 20 mM Tris-HCl, 75 mM KCl, 2.5 mM TCEP, 25 ug/mL BSA, 5% glycerol, pH 8.0, room temp; CD: 25 mM KH2PO4, 25 mM Na2HPO4, 50 mM KCl, 1 mM TCEP, pH 6.8; details: protein: recombinant; chain copies: 2; label: fluorescein; blunt, self-complementary palindrome
[8] = molecular target: T2, Max* (b-HLH-LZ of WT Max); assay: fluorescence anisotropy; 37 C; apparent 1/KBinding of dimer; 1/KDimer 55 ± 7 nM; FA: 15 nM dsDNA, 50 mM Tris, 50 mM KCl, pH 7.5, 37 C; EMSA: 250 nM DNA, 20 mM Tris-HCl, 75 mM KCl, 2.5 mM TCEP, 25 ug/mL BSA, 5% glycerol, pH 8.0, room temp; CD: 25 mM KH2PO4, 25 mM Na2HPO4, 50 mM KCl, 1 mM TCEP, pH 6.8; details: protein: recombinant; tags: C-terminal GSGC stated for the deltaMax* construct only; not restated for Max*; chain copies: 2; label: fluorescein; blunt, self-complementary palindrome
[9] = molecular target: T2, Max* (b-HLH-LZ of WT Max); assay: CD thermal denaturation; complex T° 43.7 C; less stable than E-box; FA: 15 nM dsDNA, 50 mM Tris, 50 mM KCl, pH 7.5, 37 C; EMSA: 250 nM DNA, 20 mM Tris-HCl, 75 mM KCl, 2.5 mM TCEP, 25 ug/mL BSA, 5% glycerol, pH 8.0, room temp; CD: 25 mM KH2PO4, 25 mM Na2HPO4, 50 mM KCl, 1 mM TCEP, pH 6.8; details: protein: recombinant; tags: C-terminal GSGC stated for the deltaMax* construct only; not restated for Max*; chain copies: 2; blunt, self-complementary palindrome
[10] = molecular target: T1, c-Myc* (b-HLH-LZ of c-Myc); assay: CD thermal denaturation; stable complex; FA: 15 nM dsDNA, 50 mM Tris, 50 mM KCl, pH 7.5, 37 C; EMSA: 250 nM DNA, 20 mM Tris-HCl, 75 mM KCl, 2.5 mM TCEP, 25 ug/mL BSA, 5% glycerol, pH 8.0, room temp; CD: 25 mM KH2PO4, 25 mM Na2HPO4, 50 mM KCl, 1 mM TCEP, pH 6.8; details: protein: recombinant; chain copies: 2; blunt, self-complementary palindrome
[11] = molecular target: T2, Max* (b-HLH-LZ of WT Max); assay: CD thermal denaturation; complex T° 56.1 C; FA: 15 nM dsDNA, 50 mM Tris, 50 mM KCl, pH 7.5, 37 C; EMSA: 250 nM DNA, 20 mM Tris-HCl, 75 mM KCl, 2.5 mM TCEP, 25 ug/mL BSA, 5% glycerol, pH 8.0, room temp; CD: 25 mM KH2PO4, 25 mM Na2HPO4, 50 mM KCl, 1 mM TCEP, pH 6.8; details: protein: recombinant; tags: C-terminal GSGC stated for the deltaMax* construct only; not restated for Max*; chain copies: 2; blunt, self-complementary palindrome

Molecule: GAGTAGCACGTGCTACTC (double strand) [E-box, fluorescein-labeled]
- Kd ([1]; 1/KDimer 120 ± 10 nM): 4 nM
- Kd [2]: 80 nM
- Kd ([3]; 1/KDimer 17 ± 2 nM): 10 nM

Molecule: GAGTAGGGATCCCTACTC (double strand) [Non-specific DNA, fluorescein-labeled]
- Kd ([1]; 1/KDimer 460 ± 34 nM): 40 nM
- Kd ([3]; 1/KDimer 38 ± 5 nM): 11 nM

B1: E-box, fluorescein-labeled (dsDNA)
DNA 1: GAGTAGCACGTGCTACTC
DNA 2: GAGTAGCACGTGCTACTC
modifications: internal fluorescein-dT (iFluorT) at position 4
- binding result [4]: binds
- Kd [5]: 70 nM
- Kd [6]: 4.8 nM

B2: Non-specific DNA, fluorescein-labeled (dsDNA)
DNA 1: GAGTAGGGATCCCTACTC
DNA 2: GAGTAGGGATCCCTACTC
modifications: internal fluorescein-dT (iFluorT) at position 4
- Kd [7]: 280 nM
- Kd [8]: 23 nM

B3: Non-specific DNA, unlabeled (CD) (dsDNA)
DNA 1: GAGTAGGGATCCCTACTC
DNA 2: GAGTAGGGATCCCTACTC
- binding result [9]: binds

B4: E-box, unlabeled (CD) (dsDNA)
DNA 1: GAGTAGCACGTGCTACTC
DNA 2: GAGTAGCACGTGCTACTC
- binding result [10]: binds
- binding result [11]: binds
